The values below come from patent US20260151494A1 (ARO BIOTHERAPEUTICS, published 2026).

Residue numbers refer to the chain shown, from its start.

For test [1], the target named is T1, human CD71 extracellular domain (human, UniProt P02786 89-760, biotinylated).
T1 construct: also called hCD71; CD71-ECD
In words: primary ELISA. Further: test concentration or dose not given here. A general note: An ELISA detects its analyte on a solid surface through an enzyme-linked reagent.

Test [2] deals with T2, apical domain of human CD71 (human, UniProt P02786 189-383, limits assumed).
T2 construct: domain: apical domain; Screen 4 panned on human apical domains, the ELISA text says only 'apical domain'
In words: primary ELISA. Further: test concentration or dose not given here.

Test [3] has as its target T1, human CD71 extracellular domain. In words: primary ELISA, RLU over HSA.
In test [4] the target is T2, apical domain of human CD71. In words: primary ELISA, RLU over HSA.
Test [5] concerns the target T3, human CD71 extracellular domain (human, UniProt P02786 89-760).
T3 construct: also called hCD71; human CD71-ECD
In words: primary ELISA, signal ratio to HSA.

For test [6], the target named is T4, apical domain of cynomolgus CD71 (cynomolgus, UniProt A0A2K5X958 189-383).
T4 construct: domain: apical domain; also called Cyno apical domain
In words: primary ELISA, signal ratio to HSA.

For test [7], the target named is T3, human CD71 extracellular domain. In words: primary ELISA. Further: test concentration or dose not given here.
Test [8] has as its target T4, apical domain of cynomolgus CD71. In words: primary ELISA. Further: test concentration or dose not given here.

T1 sequence (P02786 89-760): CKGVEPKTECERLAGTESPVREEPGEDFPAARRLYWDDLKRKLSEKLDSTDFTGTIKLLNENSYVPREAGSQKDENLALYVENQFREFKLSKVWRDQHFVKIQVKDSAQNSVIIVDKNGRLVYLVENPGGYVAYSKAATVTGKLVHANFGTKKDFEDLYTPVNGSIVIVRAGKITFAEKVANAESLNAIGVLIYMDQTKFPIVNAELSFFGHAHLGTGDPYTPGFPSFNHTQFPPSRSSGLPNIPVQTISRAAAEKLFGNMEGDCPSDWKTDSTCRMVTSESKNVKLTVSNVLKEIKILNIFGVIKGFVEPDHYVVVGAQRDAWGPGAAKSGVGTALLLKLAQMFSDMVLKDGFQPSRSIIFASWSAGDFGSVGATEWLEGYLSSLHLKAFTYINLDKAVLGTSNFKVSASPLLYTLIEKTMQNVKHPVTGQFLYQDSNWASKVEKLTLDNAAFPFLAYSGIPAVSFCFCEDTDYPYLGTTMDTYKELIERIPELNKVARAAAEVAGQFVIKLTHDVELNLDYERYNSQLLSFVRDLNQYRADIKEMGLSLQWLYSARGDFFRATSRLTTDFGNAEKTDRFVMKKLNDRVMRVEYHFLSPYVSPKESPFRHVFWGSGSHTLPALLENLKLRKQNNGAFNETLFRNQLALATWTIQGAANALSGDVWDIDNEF
T3 sequence (P02786 89-760): as above
T2 sequence (P02786 189-383 limits assumed): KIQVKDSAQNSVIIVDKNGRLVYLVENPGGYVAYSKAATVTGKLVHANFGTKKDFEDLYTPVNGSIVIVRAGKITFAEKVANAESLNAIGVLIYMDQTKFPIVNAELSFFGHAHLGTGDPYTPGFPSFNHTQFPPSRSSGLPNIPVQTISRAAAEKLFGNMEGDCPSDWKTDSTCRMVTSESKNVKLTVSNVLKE
T4 sequence (A0A2K5X958 entry or part of it): as the sequence (P02786 189-383 limits assumed) above, with R20G, Y59D, T60S, N104K, E106D, R137Q, R176K, S182N, N184S counted along it

B1: CD71-binding FN3 domain of SEQ ID NO: 519 (designed binder)
chain: MLPAPKNLVVSRVTEDSARLSWTAPDAAFDSFPIAYPEHLPPGEAIVLTVPGSERSYDLTGLKPGTEYPVNIRGVKGGFVSFPLSAIFTT
Regarding B1, the figures for the RLU in test [1] and in test [2] were 3.24e+06 RLU and 5.24e+06 RLU, respectively. In addition, in test [3], the “hCD71:HSA” value is 156. Moreover, the “Apical domain:HSA” value in test [4] turned out to be 253.

B2: CD71-binding FN3 domain of SEQ ID NO: 532 (designed binder)
chain: MLPAPKNLVVSRVTEDSARLSWTAPDAAFDSFDINYDELSGEGEAIALFVPGSERSYDLTGLKPGTEYWVSIGGVKGGRFSEPLYARFTT
As to B2, the values for the RLU in test [1] and in test [2] were 1.45e+06 RLU and 4.59e+06 RLU, respectively. Also, the “hCD71:HSA” value in test [3] came to 62. In addition, in test [4], the “Apical domain:HSA” value worked out at 197.

B3: CD71-binding FN3 domain of SEQ ID NO: 119 (designed binder)
chain: MSLPAPKNLVVSRVTEDSARLSWTAPDAAFDSFFIGYLEPQPPGEAIELYVPGSERSYDLTGLKPGTEYNVTIQGVKGGFPSDPLVAFFTT
Consider B3, for which the “hCD71:HSA” value in test [5] was 441. Moreover, in test [6], the “Cyno apical domain:HSA” value amounted to 394. Besides, the RLU in test [7] stood at 7.04e+06 RLU; in test [8], 6.29e+06 RLU.

B4: CD71-binding FN3 domain of SEQ ID NO: 531 (designed binder)
chain: MLPAPKNLVVSRVTEDSARLSWTAPDAAFDSFEIGYFEYSYYGEAIVLTVPGSERSYDLTGLKPGTEYRVYIGGVKGGGWSRPLSAIFTT
B4: the RLU was 1.6e+06 RLU in test [1] and 4.16e+06 RLU in test [2]. For the same molecule, the “hCD71:HSA” value in test [3] was found to be 226. Moreover, the “Apical domain:HSA” value in test [4] was 586.

B5: CD71-binding FN3 domain of SEQ ID NO: 537 (designed binder)
chain: B4 chain with Y39N, S40L, Y42L, R69W, Y71Q, G79N, R82A
In the case of B5, the RLU was 2.42e+06 RLU in test [1] and 5.14e+06 RLU in test [2]. In addition, the “hCD71:HSA” value in test [3] worked out at 23. Moreover, the “Apical domain:HSA” value in test [4] was 50.

B6: CD71-binding FN3 domain of SEQ ID NO: 120 (designed binder)
chain: MSLPAPKNLVVSRVTEDSARLSWTAPDAAFDSFEIAYQELSLWGEAIVLTVPGSERSYDLTGLKPGTEYWVQIGGVKGGEWSAPLSAIFTT
On to B6, for which the “hCD71:HSA” value in test [5] is 443. The “Cyno apical domain:HSA” value in test [6] was 534. Also, the figures for the RLU in test [7] and in test [8] were 4.26e+06 RLU and 5.13e+06 RLU, respectively.

B7: CD71-binding FN3 domain of SEQ ID NO: 149 (designed binder)
chain: B6 chain with E34D, A36G, Q38F, S41R, L42Y, W43Y, Q72S, E80T, W81Y
As for B7, the “hCD71:HSA” value in test [5] came out at 342. Besides, in test [6], the “Cyno apical domain:HSA” value turned out to be 455. The RLU worked out at 3.77e+06 RLU in test [7] and 5e+06 RLU in test [8].

B8: CD71-binding FN3 domain of SEQ ID NO: 144 (designed binder)
chain: B6 chain with A36G, Q38F, L40N, S41L, L42Y, W43L, G62S, E80N, I88T
As for B8, in test [5], the “hCD71:HSA” value came to 134. The “Cyno apical domain:HSA” value in test [6] was 150. The RLU came out at 4.74e+06 RLU in test [7] and 5.3e+06 RLU in test [8].

B9: CD71-binding FN3 domain of SEQ ID NO: 148 (designed binder)
chain: B6 chain with A36V, L40N, L42A, W43Y
On to B9, for which the “hCD71:HSA” value in test [5] turned out to be 212. Further, the “Cyno apical domain:HSA” value in test [6] turned out to be 408. The RLU in test [7] turned out to be 2.45e+06 RLU; in test [8] it was 4.72e+06 RLU.

B10: CD71-binding FN3 domain of SEQ ID NO: 131 (designed binder)
chain: B6 chain with Q38F, L40N, S41D, L42W, W43A, W70V, Q72F, E80D, W81F, A83P
As for B10, the “hCD71:HSA” value in test [5] turned out to be 101. Also, the “Cyno apical domain:HSA” value in test [6] was 145. Also, the values for the RLU in test [7] and in test [8] were 3.35e+06 RLU and 4.81e+06 RLU, respectively.

B11: CD71-binding FN3 domain of SEQ ID NO: 124 (designed binder)
chain: B6 chain with T15I, A36G, Q38F, L40N, S41L, L42Y, W43L, E80N
As for B11, the “hCD71:HSA” value in test [5] amounted to 43. In test [6], the “Cyno apical domain:HSA” value is 42. In addition, the RLU in test [7] came out at 5.01e+06 RLU; in test [8] it was 4.89e+06 RLU.

B12: CD71-binding FN3 domain of SEQ ID NO: 126 (designed binder)
chain: B6 chain with A29V, W70Y, Q72H, E80I, A83S, I88Y
With B12, the “hCD71:HSA” value in test [5] turned out to be 227. For the same molecule, the “Cyno apical domain:HSA” value in test [6] was 382. Also, the results for the RLU in test [7] and in test [8] were 3.13e+06 RLU and 5.27e+06 RLU, respectively.

B13: CD71-binding FN3 domain of SEQ ID NO: 122 (designed binder)
chain: MSLPAPKNLVVSRVTEDSARPSWTAPDAAFDSFEIGYFENLYLGEAIVLTVPGSERSYDLTGLKPGTEYYVHIGGVKGGIWSSPLSAYFTT
B13: the “hCD71:HSA” value in test [5] stood at 105. For the same molecule, the “Cyno apical domain:HSA” value in test [6] was 80. The RLU was 5.5e+06 RLU in test [7] and 4.2e+06 RLU in test [8].

B14: CD71-binding FN3 domain of SEQ ID NO: 141 (designed binder)
chain: B13 chain with P21L, Y70W, H72Q, I80N, S83A
As for B14, the “hCD71:HSA” value in test [5] turned out to be 192. The “Cyno apical domain:HSA” value in test [6] came out at 245. Besides, the RLU in test [7] is 4.22e+06 RLU; in test [8], 5.4e+06 RLU.

B15: CD71-binding FN3 domain of SEQ ID NO: 146 (designed binder)
chain: B13 chain with P21L, E34D, L41T, L43E, Y70V, H72W, I80S, W81Y, Y88I
For B15, in test [5], the “hCD71:HSA” value amounted to 112. For the same molecule, the “Cyno apical domain:HSA” value in test [6] was determined as 128. Besides, the figures for the RLU in test [7] and in test [8] were 4.34e+06 RLU and 4.96e+06 RLU, respectively.

B16: CD71-binding FN3 domain of SEQ ID NO: 130 (designed binder)
chain: B6 chain with Q38F, L40R, S41T, L42W, W43F, E80D
As for B16, the “hCD71:HSA” value in test [5] was found to be 147. Moreover, the “Cyno apical domain:HSA” value in test [6] amounted to 196. The results for the RLU in test [7] and in test [8] were 3.76e+06 RLU and 5e+06 RLU, respectively.

B17: CD71-binding FN3 domain of SEQ ID NO: 132 (designed binder)
chain: B13 chain with P21L, Y70W, H72Q, G79V, I80N, S83A, Y88I
As for B17, the “hCD71:HSA” value in test [5] was 142. For the same molecule, the “Cyno apical domain:HSA” value in test [6] turned out to be 201. The results for the RLU in test [7] and in test [8] were 3.63e+06 RLU and 5.15e+06 RLU, respectively.

B18: CD71-binding FN3 domain of SEQ ID NO: 150 (designed binder)
chain: B13 chain with P21L, E34D, L41S, L43A, H72S, G74A, I80R, W81F, S83P, Y88I
For the molecule B18, in test [5], the “hCD71:HSA” value was determined as 98. Moreover, the “Cyno apical domain:HSA” value in test [6] is 118. The results for the RLU in test [7] and in test [8] were 3.49e+06 RLU and 4.18e+06 RLU, respectively.

B19: CD71-binding FN3 domain of SEQ ID NO: 139 (designed binder)
chain: B13 chain with P21L, Y70W, H72Q, I80A, W81Y, S83T, Y88I
For B19, the “hCD71:HSA” value in test [5] is 409. In addition, in test [6], the “Cyno apical domain:HSA” value was found to be 496. Besides, the results for the RLU in test [7] and in test [8] were 3.7e+06 RLU and 4.49e+06 RLU, respectively.

B20: CD71-binding FN3 domain of SEQ ID NO: 510 (designed binder)
chain: MLPAPKNLVVSRVTEDSARLSWTAPDAAFDSFFIAYGESPESGEAIVLTVPGSERSYDLTGLKPGTEYLVWIAGVKGGYYSDPLSAIFTT
Regarding B20, the RLU is 3.39e+06 RLU in test [1] and 5.21e+06 RLU in test [2]. The “hCD71:HSA” value in test [3] stood at 263. Further, in test [4], the “Apical domain:HSA” value came to 404.

B21: CD71-binding FN3 domain of SEQ ID NO: 536 (designed binder)
chain: MLPAPKNLVVSRVTEDSARLSWTAPDAAFDSFDIGYTETVSFGEAIVLTVPGSERSYDLTGLKPGTEYIVKILGVKGGFASFPLSAIFTT
B21: the figures for the RLU in test [1] and in test [2] were 2.99e+06 RLU and 3.26e+06 RLU, respectively. Moreover, the “hCD71:HSA” value in test [3] worked out at 141. The “Apical domain:HSA” value in test [4] was 154.
